Measurements reported in patent US9273290B2, “Method for producing phosphite dehydrogenase protein and use thereof” (priority 2011, dated 2016).
Where “and” joins values, the source holds several entries; their conditions need not be identical. Equal entries are not always repeated.

How the values were obtained:
[1] = substrate: NC(=O)c1ccc[n+]([C@@H]2O[C@H](COP(=O)([O-])OP(=O)(O)OC[C@H]3O[C@@H](n4cnc5c(N)ncnc54)[C@H](O)[C@@H]3O)[C@@H](O)[C@H]2O)c1; assay: Reaction kinetic analysis: NADH production rate at varied NAD+ concentration; type: biochemical, Pseudomonas stutzeri WM88; settings: 28° C.
Excerpt: By a well-known method, the base sequence of SEQ ID NO: 2 or a phosphite dehydrogenase gene (SEQ ID NO: 4) of P stutzeri WM88 was inserted into a plasmid pET21b (produced by Novagen) (an amino acid sequence of the protein encoded by the base sequence of SEQ ID NO: 4 is shown in SEQ ID NO: 3) to prepare (i) an expression vector of a fusion protein (see “PtxD4506” in FIG. 2) in which the C-terminal of the phosphite dehydrogenase protein of SEQ ID NO: 1 is labeled with a His tag or (ii) an expression vector of a fusion protein (see “PtxDPst” in FIG. 2) in which the C-terminal of the phosphite dehydrogenase protein of P stutzeri WM88 is labeled with a His tag.
The supernatant was supplied to a HisTrap column (produced by GE Healthcare) and, in accordance with protocols attached to the HisTrap column, a fusion protein in which a His tag was connected to the C-terminal of the phosphite dehydrogenase protein of SEQ ID NO: 1 was purified.
PtxD4506 and PtxDPst, which were purified with use of the HisTrap column in [3. Expression of Phosphite Dehydrogenase Protein By Using Escherichia Coli], were compared with each other in terms of reaction rate. The following description discusses how measurement of reaction rates was carried out.
Reaction rates of respective PtxD4506 and PtxDPst were calculated on the basis of (Reaction formula 1) shown in the section [Background Art].
Specifically, in the reaction system of (Reaction formula 1), a production rate of NADH was measured with use of 7.5 μg of each of the fusion proteins PtxD4506 and PtxDPst while a concentration of a substrate (NAD^+) was gradually changed from 0.5 μM to 200 μM. Note that a reaction temperature of the fusion protein PtxD4506 was 40° C., and a reaction temperature of the fusion protein PtxDPst was 28° C.
Based on the measured concentration of the substrate (NAD^+) and the measured production rate of NADH, values of Km (μM), Vmax (μmol/min/m), Kcat (min^−1), and Kcat/km were calculated in accordance with a well-known enzyme kinetic method (see, for example, “Fundamental Experiment Method of Proteins and Enzymes (2nd revised edition), Nankodo Co., Ltd.”). Note that the experiment was carried out three times, and values of Km, Vmax, Kcat, and Kcat/km were calculated in each of the experiments. Then, for each of Km, Vmax, Kcat, and Kcat/km, an average of the values calculated in the three experiments was obtained and defined as the value of each of Km, Vmax, Kcat, and Kcat/km. Kcat was calculated by the formula: Kcat=Vmax (μmol/min/mg)×(MW/10^3).

[2] = substrate: NC(=O)c1ccc[n+]([C@@H]2O[C@H](COP(=O)([O-])OP(=O)(O)OC[C@H]3O[C@@H](n4cnc5c(N)ncnc54)[C@H](O)[C@@H]3O)[C@@H](O)[C@H]2O)c1; assay: purified protein, by the assay type; settings: 40° C.
[3] = other: NAD+ 0.5 μM to 200 μM, individual experiments 1-3
[4] = other: NAD+, average of three experiments

| Protein | Km [1, 3] | Km [1, 4] [µM] | Vmax [1, 4] [µmol/min/mg] | kcat [1, 4] [s⁻¹] | Km [2, 3] | Km [2, 4] [µM] | Vmax [2, 4] [µmol/min/mg] | kcat [2, 4] [s⁻¹] |
| --- | --- | --- | --- | --- | --- | --- | --- | --- |
| Pseudomonas stutzeri WM88 phosphite dehydrogenase, wild type, SEQ ID NO: 3, C-terminal His tag fusion (PtxDPst) (Stutzerimonas stutzeri) (protein, His tag (C); made in house; host or cells: E. coli Rosetta2 (DE3), plasmid pET21b) MLPKLVITHRVHDEILQLLAPHCELMTNQTDSTLTREEILRRCRDAQAMMAFMPDRVDADFLQACPELRVVGCALKGFDNFDVDACTARGVWLTFVPDLLTVPTAELAIGLAVGLGRHLRAADAFVRSGEFQGWQPQFYGTGLDNATVGILGMGAIGLAMADRLQGWGATLQYHEAKALDTQTEQRLGLRQVACSELFASSDFILLALPLNADTQHLVNAELLALVRPGALLVNPCRGSVVDEAAVLAALERGQLGGYAADVFEMEDWARADRPRLIDPALLAHPNTLFTPHIGSAVRAVRLEIERCAAQNIIQVLAGARPINAANRLPKAEPAAC | 74.4 µM and 71.2 µM and 74.7 µM | 73.4 | 4.2 | 2.827 |  |  |  |  |
| Ralstonia sp. strain 4506 phosphite dehydrogenase, SEQ ID NO: 1, C-terminal His tag fusion (PtxD4506) (Ralstonia sp. 4506) (protein) MKPKVVLTHWVHPEIIELLSASADVIPNTTRETLPRSEVIARAKDADALMAFMPDSIDSAFLEECPKLRVIGAALKGYDNFDVNACTRHGVWLTIVPDLLTIPTAELTIGLLLGLTRHMLEGDRQIRSGHFQGWRPTLYGSGLTGKTLGIIGMGAVGRAIAQRLAGFEMNLLYCDPIPLNAEQEKAWHVQRVTLDELLEKCDYVVPMVPMAAETLHLIDATALAKMKTGSYLINACRGSVVDENAVIAALASGKLAGYAADVFEMEEWIRADRPQAIPKALLDNTAQTFFTPHLGSAVKEVRLEIERQAAMNIIQALAGEKPMGAINQPYPGVKAA |  |  |  |  | 22.6 µM and 23.3 µM and 25.1 µM | 23.7 | 5.9 | 3.957 |
